As a reminder, the Kd is the equilibrium constant for the complex coming apart. The low end stands for tighter binding, the high end for weaker binding. Usually koff stands for the first-order rate constant of dissociation. Low readings indicate slow dissociation, high ones fast dissociation. As usually defined, the kon is the second-order rate constant of association.

The target of the assay is AffiTagged cyclicPfAMA1-DI (folded protein 45) (Plasmodium falciparum). Briefly: SPR; AffiTagged cyclicPfAMA1-DI held on a nickel-NTA chip (BI-4500, Biosensing Instrument Inc.), PfRON2_(2021-2059) in solution; kinetic fit, average of three repeats. (Surface plasmon resonance follows binding to a sensor surface in real time, without labels.)

Consider “PfRON2_(2021-2059) peptide (rhoptry neck protein 2 ectodomain peptide) (from UniProt Q8IKV6 2021-2059)”, for which the Kd came to 500 nM, the dissociation rate constant (koff) was 0.0708 s⁻¹ and the kon came out at 142000 M⁻¹ s⁻¹.

The record behind these values is PMC12089923.
